In US20230381328A1, “COMPOUND FOR THE PREVENTION OR TREATMENT OF MYASTHENIA GRAVIS” (ABLEVIA BIOTECH GMBH, priority 2020, published 2023):
Where no end group is shown, it is not given here.

biological target: monoclonal antibody mAB 198; test: peptide microarray, fluorescence, cyclic peptide

| Binder | relative signal [%] |
| --- | --- |
| RLRINPADY (also: cyclic peptide, ring type and places not given here) | 25.5 |
| RVNPADY (also: cyclic peptide, ring type and places not given here) [RVNPADY, cyclic mimotope] | 18.7 |
| LRRNPADYG (also: cyclic peptide, mode of cyclisation not given here) | 23.4 |
| RYNPADY (also: cyclic peptide, ring type and places not given here) [RYNPADY, cyclic mimotope] | 20.2 |
| RINPADYGG (also: cyclic peptide, ring type and places not given here) | 23.1 |
| GGSLRVNPADY (also: cyclic peptide, mode of cyclisation not given here) | 22.5 |
| SLRFNPADY (also: cyclic peptide, ring type and places not given here) | 13.6 |
| NPADYGR (also: cyclic peptide, ring type and places not given here) [NPADYGR, cyclic mimotope] | 19.5 |
| NPADYGH (also: cyclic peptide, mode of cyclisation not given here) [NPADYGH, cyclic mimotope] | 15.8 |
| RTNPADY (also: cyclic peptide, ring type and places not given here) [RTNPADY, cyclic mimotope] | 14.6 |
| RPRWNPADY (also: cyclic peptide, ring type and places not given here) | 12.4 |
| NPADYRG (also: cyclic peptide, ring type and places not given here) [NPADYRG, cyclic mimotope] | 27.4 |
| GSLRWNPADYR (also: cyclic peptide, mode of cyclisation not given here) | 16.2 |
| GSLRWNPADYP (also: cyclic peptide, mode of cyclisation not given here) | 12.4 |
| GGGSLRRNPAD (also: cyclic peptide, mode of cyclisation not given here) | 12.5 |
| LRLNPADYG (also: cyclic peptide, mode of cyclisation not given here) | 28.6 |
| GGSLRFNPADY (also: cyclic peptide, mode of cyclisation not given here) | 14.5 |
| LRWNPADYP (also: cyclic peptide, mode of cyclisation not given here) | 13.1 |
| NPADYGD (also: cyclic peptide, mode of cyclisation not given here) [NPADYGD, cyclic mimotope] | 12.6 |
| RINPADY (also: cyclic peptide, ring type and places not given here) [RINPADY, cyclic mimotope] | 28.9 |
| WNPADYR (also: cyclic peptide, mode of cyclisation not given here) [WNPADYR, cyclic mimotope] | 24.9 |
| RGNPADY (also: cyclic peptide, ring type and places not given here) [RGNPADY, cyclic mimotope] | 23.8 |
| RPNPADY (also: cyclic peptide, ring type and places not given here) [RPNPADY, cyclic mimotope] | 15.6 |
| LRRNPAD (also: cyclic peptide, mode of cyclisation not given here) [LRRNPAD, cyclic mimotope] | 28.2 |
| RRNPADY (also: cyclic peptide, ring type and places not given here) [RRNPADY, cyclic mimotope] | 23.5 |
| VNPADYG (also: cyclic peptide, mode of cyclisation not given here) [VNPADYG, cyclic mimotope] | 12.5 |
| WNPADYP (also: cyclic peptide, mode of cyclisation not given here) [WNPADYP, cyclic mimotope] | 21.1 |

The remaining lines, values ahead:

| relative signal [%] | Binder |
| --- | --- |
| 25 | DVRLRGNPADY (also: cyclic peptide, mode of cyclisation not given here) |
| 13.4 | VRLRVNPADYG (also: cyclic peptide, mode of cyclisation not given here) |
| 21.3 | DVRLRPNPADY (also: cyclic peptide, mode of cyclisation not given here) |
| 14.7 | VRLRRNPAD (also: cyclic peptide, mode of cyclisation not given here) |
| 26.5 | SLRVNPADY (also: cyclic peptide, mode of cyclisation not given here) |
| 22.8 | LRINPADYG (also: cyclic peptide, mode of cyclisation not given here) |
| 27.7 | DVRLRFNPADY (also: cyclic peptide, mode of cyclisation not given here) |
| 21.3 | RLRFNPADY (also: cyclic peptide, ring type and places not given here) |
| 24.5 | RLRYNPADY (also: cyclic peptide, ring type and places not given here) |
| 19.6 | GGSLRGNPADY (also: cyclic peptide, mode of cyclisation not given here) |
| 13.7 | RLYWNPADY (also: cyclic peptide, ring type and places not given here) |
| 30.2 | DVRLRVNPADY (also: cyclic peptide, mode of cyclisation not given here) |
| 15.4 | SLRGNPADY (also: cyclic peptide, ring type and places not given here) |
| 28 | SLRINPADY (also: cyclic peptide, mode of cyclisation not given here) |
| 22.2 | RGNPADYGG (also: cyclic peptide, ring type and places not given here) |
| 31.4 | DVRLRINPADY (also: cyclic peptide, mode of cyclisation not given here) |
| 13.7 | GNPADYGGI (also: cyclic peptide, mode of cyclisation not given here) |
| 21.8 | SLRLNPADY (also: cyclic peptide, mode of cyclisation not given here) |
| 25.4 | GGSLRINPADY (also: cyclic peptide, mode of cyclisation not given here) |
| 32.7 | RLRGNPADY (also: cyclic peptide, ring type and places not given here) |
